These results are taken from PMC10763564, “BrainBike peptidomimetic enables efficient transport of proteins across brain endothelium†” (RSC Chemical Biology, 2023).

Assay [1] addresses T1, Transferrin Receptor 1 on HeLa cells (TfR1+) (human (endogenous in HeLa), UniProt P02786 1-760).
T1 construct: Transferrin Receptor 1 (TfR1), endogenous on HeLa cells; source: endogenous, on HeLa cells
The assay is described as follows: flow cytometry on cells; sCy5-labelled peptides on HeLa cells (TfR1+, endogenous receptor). As to conditions: one partner purified.

In assay [2] the target is T2, TfR1 fused to a green fluorescent protein, on transfected HeLa cells (TfR1+++) (UniProt P02786 1-760).
T2 construct: Transferrin Receptor 1 (TfR1) encoded by a plasmid as a fusion with GFP; The transfected HeLa cells carry the endogenous TfR1 as well; also called GFP-TfR1; source: HeLa, transfected, on cells
T2 sequence (P02786 whole entry, the tested form may be a part): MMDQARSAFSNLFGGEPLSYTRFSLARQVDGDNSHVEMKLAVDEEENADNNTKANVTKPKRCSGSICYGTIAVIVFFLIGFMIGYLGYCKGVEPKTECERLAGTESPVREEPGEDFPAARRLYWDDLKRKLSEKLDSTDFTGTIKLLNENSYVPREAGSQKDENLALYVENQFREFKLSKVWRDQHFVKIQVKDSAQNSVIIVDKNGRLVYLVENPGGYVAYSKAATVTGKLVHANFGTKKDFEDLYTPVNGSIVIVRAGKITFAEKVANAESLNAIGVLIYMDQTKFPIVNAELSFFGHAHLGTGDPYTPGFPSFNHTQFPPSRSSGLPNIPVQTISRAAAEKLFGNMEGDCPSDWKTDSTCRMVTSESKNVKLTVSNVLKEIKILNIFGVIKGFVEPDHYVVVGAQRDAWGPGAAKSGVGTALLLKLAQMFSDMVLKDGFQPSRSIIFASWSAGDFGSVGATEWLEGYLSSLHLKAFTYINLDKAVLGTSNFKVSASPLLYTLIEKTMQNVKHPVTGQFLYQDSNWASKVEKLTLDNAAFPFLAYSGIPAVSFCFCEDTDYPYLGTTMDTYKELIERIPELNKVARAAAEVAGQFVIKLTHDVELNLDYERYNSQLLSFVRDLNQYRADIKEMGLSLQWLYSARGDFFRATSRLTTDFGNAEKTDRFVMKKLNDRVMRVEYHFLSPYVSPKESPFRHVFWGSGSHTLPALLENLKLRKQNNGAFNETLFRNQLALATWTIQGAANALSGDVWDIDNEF
The assay is described as follows: flow cytometry on cells; sCy5-labelled peptide on HeLa cells transfected with GFP-TfR1 (TfR1+++), cells with higher levels of the receptor analysed. As to conditions: one partner purified.

Starred links: 1 amine or outer side, 2 acyl side, 3 side chain; linkers in the order of their positions; H or OH if unused. Positions of bridges follow the written chain, without caps; N, C: chain ends. No end group written: not given here. TBMB = c1c(C[*:1])cc(C[*:3])cc1C[*:2]

T1 sequence (P02786 whole entry): as the sequence (P02786 whole entry, the tested form may be a part) above

With {sulfo‑Cyanine5}-GSGCVHWDCRQWC (linker 4-9-13 via TBMB) [BrainBike-4 labelled with sulfo-Cyanine5], in assay [1], the equilibrium dissociation constant (Kd) is roughly 40 nM and the “fold cell association against the parent peptide Y1” value was found to be 7 fold. The “fold binding against the same cells without overexpressing the receptor” value in assay [2] was roughly 40 fold.
